Biological target: luteinizing hormone receptor (LHR) (Homo sapiens, UniProt P22888)
Test: [125I]-hCG binding to transfected SKOV-3 cells

luteinizing hormone receptor (LHR), sequence (P22888 27-699): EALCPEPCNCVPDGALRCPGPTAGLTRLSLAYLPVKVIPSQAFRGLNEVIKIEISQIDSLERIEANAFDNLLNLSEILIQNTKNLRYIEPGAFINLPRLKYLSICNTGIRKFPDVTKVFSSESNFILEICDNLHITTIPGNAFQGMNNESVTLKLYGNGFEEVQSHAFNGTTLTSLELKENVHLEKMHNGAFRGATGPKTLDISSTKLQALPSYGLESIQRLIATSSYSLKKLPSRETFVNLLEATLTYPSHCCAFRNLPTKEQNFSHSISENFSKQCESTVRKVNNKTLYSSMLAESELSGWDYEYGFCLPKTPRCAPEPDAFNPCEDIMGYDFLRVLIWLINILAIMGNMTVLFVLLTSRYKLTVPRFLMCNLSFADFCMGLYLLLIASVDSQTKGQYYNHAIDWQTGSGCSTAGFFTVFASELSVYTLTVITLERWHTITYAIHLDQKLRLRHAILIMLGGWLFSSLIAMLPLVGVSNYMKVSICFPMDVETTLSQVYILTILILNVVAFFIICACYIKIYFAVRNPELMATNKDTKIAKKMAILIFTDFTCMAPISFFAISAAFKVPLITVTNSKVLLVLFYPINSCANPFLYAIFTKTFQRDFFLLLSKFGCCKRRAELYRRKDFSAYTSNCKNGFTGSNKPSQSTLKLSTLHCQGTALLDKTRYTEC

- Kd: 0.3 nM
B1: human chorionic gonadotropin (protein)
chain 1: not shown
chain 2: SKEPLRPRCRPINATLAVEKEGCPVCITVNTTICAGYCPTMTRVLQGVLPALPQVVCNYRDVRFESIRLPGCPRGVNPVVSYAVALSCQCALCRRSTTDCGGPKDHPLTCDDPRFQDSSSSKAPPPSLPSPSRLPGPSDTPILPQ
modifications: 125I-labelled hCG
